Source: paper PMC4545946, “Human Papillomavirus Type 18 cis-Elements Crucial for Segregation and Latency”

Key:
Conditions in all cases: protein: recombinant; tags: N-terminal Strep-II; chain copies: 2; label: 32P 5' end
[1] = target: T1, HPV-18 E2 (N-terminal Strep-II tag) (Human papillomavirus type 18, UniProt P06790 1-365); experiment: EMSA; two dimers, cooperative; intermediate k12 (value only in Fig 4D)
[2] = target: T1, HPV-18 E2 (N-terminal Strep-II tag); experiment: EMSA; two dimers, cooperative; k12 order 1-Linker < 3-Linker < 2-Linker (values only in Fig 4D); >95% probe bound at 1.65 uM E2
[3] = target: T1, HPV-18 E2 (N-terminal Strep-II tag); experiment: EMSA; two dimers, cooperative; highest k12 (value only in Fig 4D)

T1 sequence (P06790 whole entry): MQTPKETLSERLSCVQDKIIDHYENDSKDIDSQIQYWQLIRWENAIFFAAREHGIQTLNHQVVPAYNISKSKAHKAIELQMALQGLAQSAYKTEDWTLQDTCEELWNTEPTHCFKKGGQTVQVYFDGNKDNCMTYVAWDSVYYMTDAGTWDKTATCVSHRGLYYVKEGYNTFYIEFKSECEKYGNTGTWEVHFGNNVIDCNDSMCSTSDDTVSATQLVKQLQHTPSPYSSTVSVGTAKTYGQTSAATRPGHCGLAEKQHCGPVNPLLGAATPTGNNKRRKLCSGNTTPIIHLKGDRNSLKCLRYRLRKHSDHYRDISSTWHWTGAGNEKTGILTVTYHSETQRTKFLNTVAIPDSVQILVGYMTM

B1: 3-Linker (E2BS #1 and #2, 12 bp spacer) (dsDNA)
DNA 1: ACCGAAAACGGTCGGGCGGGCGGGACCGAAAACGGT
DNA 2: ACCGTTTTCGGTCCCGCCCGCCCGACCGTTTTCGGT
- binding result [1]: binds

B2: 1-Linker (wt, E2BS #1 and #2 with CGGG spacer) (dsDNA)
DNA 1: ACCGAAAACGGTCGGGACCGAAAACGGT
DNA 2: ACCGTTTTCGGTCCCGACCGTTTTCGGT
- binding result [2]: binds

B3: 2-Linker (E2BS #1 and #2, 8 bp spacer) (dsDNA)
DNA 1: ACCGAAAACGGTCGGGCGGGACCGAAAACGGT
DNA 2: ACCGTTTTCGGTCCCGCCCGACCGTTTTCGGT
- binding result [3]: binds
